Measured values taken from the Human Domainome abundance scans (Beltran et al. 2025).
± gives the uncertainty stated by the source.

B1: Nanos homolog 2, residues 63 to 115; numbered along this chain, P60321 (parent)
chain: CNFCKHNGESRHVYSSHQLKTPDGVVVCPILRHYVCPVCGATGDQAHTLKYCP

Variants of: B1
Assay: abundance fitness (aPCA) (normalised: wild type 0, dead -1); higher = more abundant; growth selection in yeast, the domain comes from the species named
Details: Homo sapiens

With V13A as the variant, how does the abundance fitness read?
Its abundance fitness is -0.084 ± 0.077.

For V13Q, which abundance fitness is on record?
Its abundance fitness is -0.068 ± 0.1.

With V13M as the variant, how does the abundance fitness read?
Its abundance fitness is 0.056 ± 0.092.

For V35W, which abundance fitness is on record?
The abundance fitness was -0.445 ± 0.12.

With V35P as the variant, how does the abundance fitness read?
Its abundance fitness is -0.341 ± 0.094.

For Y14D, which abundance fitness is on record?
The abundance fitness was -0.213 ± 0.13.

Which abundance fitness does the source give for Y14R here?
Its abundance fitness is -0.153 ± 0.074.

Which abundance fitness does the source give for Y14T here?
Its abundance fitness is 0.011 ± 0.081.

Which abundance fitness does the source give for L31R here?
The abundance fitness was -0.415 ± 0.074.

Which abundance fitness does the source give for N7R here?
The abundance fitness was -0.036 ± 0.083.

With N7H as the variant, how does the abundance fitness read?
The abundance fitness was -0.036 ± 0.13.

Which abundance fitness does the source give for H17I here?
The abundance fitness was -0.719 ± 0.25.

With H6N as the variant, how does the abundance fitness read?
Its abundance fitness is -0.003 ± 0.11.

Which abundance fitness does the source give for H6T here?
The abundance fitness was -0.091 ± 0.094.

Which abundance fitness does the source give for S15V here?
Its abundance fitness is -0.157 ± 0.073.

Which abundance fitness does the source give for T48W here?
Its abundance fitness is -0.284 ± 0.077.

For T48R, which abundance fitness is on record?
The abundance fitness was -0.247 ± 0.054.

Which abundance fitness does the source give for R11S here?
Its abundance fitness is -0.047 ± 0.1.

For R11F, which abundance fitness is on record?
Its abundance fitness is 0.07 ± 0.16.

Which abundance fitness does the source give for R11V here?
The abundance fitness was -0.007 ± 0.091.

With D44V as the variant, how does the abundance fitness read?
Its abundance fitness is -0.299 ± 0.08.

With D44Q as the variant, how does the abundance fitness read?
The abundance fitness was -0.25 ± 0.11.

Which abundance fitness does the source give for D44H here?
The abundance fitness was -0.514 ± 0.23.

For D44R, which abundance fitness is on record?
Its abundance fitness is -0.403 ± 0.084.

For C36M, which abundance fitness is on record?
Its abundance fitness is -0.75 ± 0.094.

Which abundance fitness does the source give for C36S here?
Its abundance fitness is -0.699 ± 0.094.

With S10Q as the variant, how does the abundance fitness read?
The abundance fitness was 0.066 ± 0.11.

For S10K, which abundance fitness is on record?
The abundance fitness was 0.079 ± 0.11.

Which abundance fitness does the source give for S16H here?
Its abundance fitness is -0.287 ± 0.12.

Which abundance fitness does the source give for S16E here?
The abundance fitness was -0.163 ± 0.099.

Which abundance fitness does the source give for S16C here?
Its abundance fitness is 0.077 ± 0.14.

With G40K as the variant, how does the abundance fitness read?
Its abundance fitness is 0.183 ± 0.099.

With C39P as the variant, how does the abundance fitness read?
The abundance fitness was -0.85 ± 0.24.

Which abundance fitness does the source give for C39Q here?
The abundance fitness was -0.428 ± 0.18.

With Q45M as the variant, how does the abundance fitness read?
The abundance fitness was 0.119 ± 0.13.

Which abundance fitness does the source give for Q45S here?
Its abundance fitness is 0.039 ± 0.091.

With Q45D as the variant, how does the abundance fitness read?
Its abundance fitness is -0.015 ± 0.12.

For H12S, which abundance fitness is on record?
Its abundance fitness is 0.126 ± 0.066.

Which abundance fitness does the source give for V38R here?
The abundance fitness was 0.172 ± 0.06.

With V38W as the variant, how does the abundance fitness read?
The abundance fitness was -0.222 ± 0.11.

Which abundance fitness does the source give for V38Q here?
Its abundance fitness is 0.091 ± 0.1.

For V38I, which abundance fitness is on record?
Its abundance fitness is -0.16 ± 0.13.

Which abundance fitness does the source give for T42N here?
The abundance fitness was -0.23 ± 0.14.

With T42L as the variant, how does the abundance fitness read?
The abundance fitness was -0.294 ± 0.068.

For Y51S, which abundance fitness is on record?
Its abundance fitness is -0.104 ± 0.085.

Which abundance fitness does the source give for Y51K here?
Its abundance fitness is 0.024 ± 0.12.

With Y51L as the variant, how does the abundance fitness read?
Its abundance fitness is -0.137 ± 0.077.

Which abundance fitness does the source give for Y51E here?
The abundance fitness was -0.368 ± 0.15.

For P37I, which abundance fitness is on record?
Its abundance fitness is -0.196 ± 0.13.

With P37R as the variant, how does the abundance fitness read?
Its abundance fitness is 0.088 ± 0.085.

For N2M, which abundance fitness is on record?
Its abundance fitness is -0.861 ± 0.16.

For C52H, which abundance fitness is on record?
Its abundance fitness is -0.181 ± 0.078.

With C52E as the variant, how does the abundance fitness read?
Its abundance fitness is -0.64 ± 0.34.

Which abundance fitness does the source give for P22V here?
Its abundance fitness is -0.053 ± 0.069.

Which abundance fitness does the source give for P22L here?
Its abundance fitness is -0.067 ± 0.096.

For P22I, which abundance fitness is on record?
The abundance fitness was -0.158 ± 0.13.

Which abundance fitness does the source give for P22F here?
The abundance fitness was -0.383 ± 0.14.

Which abundance fitness does the source give for L19V here?
The abundance fitness was -0.113 ± 0.078.

For L19P, which abundance fitness is on record?
The abundance fitness was -0.508 ± 0.15.

Which abundance fitness does the source give for L19I here?
The abundance fitness was -0.149 ± 0.24.

Which abundance fitness does the source give for F3P here?
Its abundance fitness is -1.3 ± 0.097.

For A41E, which abundance fitness is on record?
Its abundance fitness is -0.032 ± 0.062.

Which abundance fitness does the source give for A41H here?
The abundance fitness was -0.068 ± 0.15.

Which abundance fitness does the source give for A41I here?
The abundance fitness was -0.574 ± 0.25.

Which abundance fitness does the source give for K5A here?
Its abundance fitness is -0.245 ± 0.057.

With K5W as the variant, how does the abundance fitness read?
Its abundance fitness is -0.4 ± 0.054.

With K5T as the variant, how does the abundance fitness read?
Its abundance fitness is -0.456 ± 0.097.

With K5N as the variant, how does the abundance fitness read?
Its abundance fitness is -0.541 ± 0.12.

Which abundance fitness does the source give for K20L here?
The abundance fitness was -0.289 ± 0.069.

Which abundance fitness does the source give for K20Y here?
The abundance fitness was -0.455 ± 0.14.

With E9C as the variant, how does the abundance fitness read?
The abundance fitness was 0.065 ± 0.11.

For E9T, which abundance fitness is on record?
Its abundance fitness is -0.154 ± 0.087.

For E9V, which abundance fitness is on record?
The abundance fitness was -0.189 ± 0.061.

Which abundance fitness does the source give for E9F here?
Its abundance fitness is -0.259 ± 0.072.

For E9W, which abundance fitness is on record?
Its abundance fitness is -0.495 ± 0.15.

For G24L, which abundance fitness is on record?
The abundance fitness was -0.527 ± 0.064.

With G24T as the variant, how does the abundance fitness read?
Its abundance fitness is -0.563 ± 0.13.

Which abundance fitness does the source give for G24Y here?
Its abundance fitness is -0.895 ± 0.25.

With C4R as the variant, how does the abundance fitness read?
The abundance fitness was -0.933 ± 0.051.

Which abundance fitness does the source give for D23W here?
Its abundance fitness is -0.306 ± 0.11.

For Y34Q, which abundance fitness is on record?
Its abundance fitness is 0.013 ± 0.099.

For Y34N, which abundance fitness is on record?
Its abundance fitness is -0.134 ± 0.091.

With Y34R as the variant, how does the abundance fitness read?
Its abundance fitness is 0.046 ± 0.068.
